The text below walks through data of patent US20150344570A1 (published 2015).

Numbering of substitutions follows the chain as printed. Numbers in names are those of the source.

In one assay the target is T1, FcgRIIIaV (human, UniProt P08637 17-208).
T1 construct: extracellular domain; Allotype V158; also called FcγRIIIa V; not shown: His tag attached to the C terminus
Briefly: SPR (Biacore); KD of H240-Kn120/H240-Hl068/L73-k0 divided by KD of the sample. On the procedure:
(§1) Analysis of interaction between objective antibody and the FcγR was carried out using Biacore T100 (GE Healthcare), Biacore T200, Biacore A100, and Biacore 4000. HBS-EP+ (GE Healthcare) was used as the running buffer, and the measurement temperature was set to 25° C. Chips produced by immobilizing the antigen peptide by the amine coupling method to a Series S sensor Chip CM5 (GE Healthcare), chips produced by allowing preliminarily biotinylated antigen peptides to interact with and immobilize onto a Series S Sensor Chip SA (certified) (GE Healthcare), chips produced by immobilizing Protein L (ACTIGEN, BioVision) to Series S Sencor Chip CM5 (GE Healthcare), or chips produced by immobilizing Protein A/G (Thermo Scientific) to Series S Sencor Chip CM5 (GE Healthcare) were used. Antibodies of interest were captured onto these chips, and allowed to interact to each FcγR diluted with running buffer. To regenerate and repeatedly use the chip, the antibodies captured onto the chip were washed off by reacting 10 mM glycine-HCl, pH 1.5.

The target of another assay is T2, FcgRIIaR (human, UniProt P12318 34-217).
T2 construct: extracellular domain; Allotype R131; also called FcγRIIa R; FcgRIIa type R; not shown: His tag attached to the C terminus
T2 sequence (looked up): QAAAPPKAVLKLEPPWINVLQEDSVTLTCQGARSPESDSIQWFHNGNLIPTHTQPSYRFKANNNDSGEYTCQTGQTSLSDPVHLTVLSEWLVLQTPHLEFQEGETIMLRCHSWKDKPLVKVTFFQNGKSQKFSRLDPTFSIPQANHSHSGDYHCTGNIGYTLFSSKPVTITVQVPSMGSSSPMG
Described as above. Here is the method:
as §1

Another assay concerns the target T3, FcgRIIaH (human, UniProt P12318 34-217).
T3 construct: extracellular domain; Allotype H131; also called FcγRIIa H; FcgRIIa type H; not shown: His tag attached to the C terminus
T3 sequence (looked up): T2 sequence (looked up) with R134H
The assay is described as above. Here is the method: as §1

Another assay deals with T4, FcgRIIb (human, UniProt P31994 43-217).
T4 construct: extracellular domain; also called FcγRIIb; CD32B; not shown: His tag attached to the C terminus
T4 sequence (looked up): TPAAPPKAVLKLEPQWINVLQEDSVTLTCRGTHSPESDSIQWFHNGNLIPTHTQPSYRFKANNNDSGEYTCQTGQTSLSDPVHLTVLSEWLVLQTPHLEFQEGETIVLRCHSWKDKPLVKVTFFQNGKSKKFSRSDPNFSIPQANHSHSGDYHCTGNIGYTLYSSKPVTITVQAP
Described as above. Here is the method:
as §1

Another assay has as its target T5, FcgRIa (human, UniProt P12314 16-292).
T5 construct: extracellular domain; Soluble extracellular domain expressed in FreeStyle293 cells; also called FcγRIa; FcγRI; not shown: His tag attached to the C terminus
The assay is described as above. Here is the method: as §1

The target in another assay is T6, FcgRIIIaF (human, UniProt P08637 17-208).
T6 construct: extracellular domain; Allotype F158; also called FcγRIIIa F; not shown: His tag attached to the C terminus
Described as above. On the procedure:
as §1

Assay [1] deals with FcγRIIIa extracellular domain with C-terminal His tag (human, UniProt P08637 17-208). Briefly: SPR (Biacore), relative binding activity; GpH7-A5/GpH7-B3/GpL16-k0 = 100. For orientation: SPR reads the build-up and loss of mass on a sensor chip optically.
Chain of FcγRIIIa extracellular domain with C-terminal His tag (P08637 17-208): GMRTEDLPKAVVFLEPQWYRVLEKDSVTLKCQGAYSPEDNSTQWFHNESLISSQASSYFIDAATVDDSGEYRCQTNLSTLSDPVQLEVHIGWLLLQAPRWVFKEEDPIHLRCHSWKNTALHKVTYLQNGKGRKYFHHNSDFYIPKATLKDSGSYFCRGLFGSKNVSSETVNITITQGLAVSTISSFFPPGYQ

T6 sequence (P08637 17-208): as above
T5 sequence (P12314 16-292): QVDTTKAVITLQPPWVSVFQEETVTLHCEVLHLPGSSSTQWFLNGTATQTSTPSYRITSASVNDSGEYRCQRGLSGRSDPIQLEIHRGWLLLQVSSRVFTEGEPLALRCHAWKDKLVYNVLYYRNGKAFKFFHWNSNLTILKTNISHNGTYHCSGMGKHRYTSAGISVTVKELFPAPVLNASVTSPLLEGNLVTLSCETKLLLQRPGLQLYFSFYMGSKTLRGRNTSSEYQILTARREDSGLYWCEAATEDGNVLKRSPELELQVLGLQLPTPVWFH
T1 sequence (P08637 17-208 F176V limits assumed): as the sequence (P08637 17-208) above, with F160V counted along it

B1: H240-Kn120/H240-Hl068/L73-k0 (antibody, human IgG1, kappa)
heavy 1: QDQLVQSGAEVKKPGASVKVSCKASGFNIKDTYIQWVRQAPGQGLEWMGRIDPLRKQTKYREKFEGRVTITADTSTNTAYMELSSLRSEDTAVYYCVRSGREFDYWGQGTLVTVSSASTKGPSVFPLAPSSKSTSGGTAALGCLVKDYFPEPVTVSWNSGALTSGVHTFPAVLQSSGLYSLSSVVTVPSSSLGTQTYICNVNHKPSNTKVDKKVEPKSCDKTHTCPPCPAPEYYWGPMVFLFPPKPKDTLMISRTPEVTCVVVDVSDEDPEVKFNWYVDGVEVHNAKTKPREEQYNATYRVVSVLTVLHQDWLNGKEYKCKVSNKDLPAPIEKTISKAKGQPREPQVCTLPPSRDELTKNQVSLWCLVKGFYPSDIAVEWESNGQPENNYKTTPPVLDSDGSFFLYSKLTVDKSRWQQGNVFSCSVMHEALHNHYTQKSLSLSP
heavy 2: QDQLVQSGAEVKKPGASVKVSCKASGFNIKDTYIQWVRQAPGQGLEWMGRIDPLRKQTKYREKFEGRVTITADTSTNTAYMELSSLRSEDTAVYYCVRSGREFDYWGQGTLVTVSSASTKGPSVFPLAPSSKSTSGGTAALGCLVKDYFPEPVTVSWNSGALTSGVHTFPAVLQSSGLYSLSSVVTVPSSSLGTQTYICNVNHKPSNTKVDKKVEPKSCDKTHTCPPCPAPELLGGPSVFLFPPKPKDTLMISRTPEVTCVVVDVSHEEPEVKFNWYVDGVEVHNAKTKPREEQYNSTYRVVSVLTVLHQDWLNGKEYKCKVSNDALPKPIEETISKAKGQPREPQVYTLPPSRCELTKNQVSLSCAVKGFYPSDIAVEWESNGQPENNYKTTPPVLDSDGSFFLVSKLTVDKSRWQQGNVFSCSVMHEALHNHYTQKSLSLSP
light: DIQMTQSPSSLSASVGDRVTITCRASQDIHKYIAWYQQKPGQAPRLLIQYTSTLQPGVPSRFSGSGSGTDYTFTISSLQPEDIATYYCLQYEQLRTFGGGTKVEIKRTVAAPSVFIFPPSDEQLKSGTASVVCLLNNFYPREAKVQWKVDNALQSGNSQESVTEQDSKDSTYSLSSTLTLSKADYEKHKVYACEVTHQGLSSPVTKSFNRGEC
notes: Heterodimerized (knobs-into-holes) anti-epiregulin IgG1 antibody
For B1, the “relative KD” value with FcgRIIIaV, in the assay with FcgRIIaR, in the assay with FcgRIIaH, with FcgRIIb, with FcgRIa and with FcgRIIIaF was 1 each time.

B2: H240-Kn120/H240-Hl174/L73-k0 (antibody, human IgG1, kappa)
heavy 1: B1 heavy 1
heavy 2: B1 heavy 2 with I331E
light: B1 light
notes: Heterodimerized anti-epiregulin IgG1 antibody; I332E in H240-Hl068
In the case of B2, the “relative KD” value in the assay with FcgRIIIaV is 10; in the assay with FcgRIIaR, 0.7; with FcgRIIaH, 0.7; with FcgRIIb, 1.2; in the assay with FcgRIa, 1.1; in the assay with FcgRIIIaF, 4.3.

B3: H240-Kn172/H240-Hl177/L73-k0 (antibody, human IgG1, kappa)
heavy 1: B1 heavy 1 with I331M
heavy 2: B1 heavy 2 with I331Q
light: B1 light
notes: Heterodimerized anti-epiregulin IgG1 antibody; I332M in H240-Kn120 and I332Q in H240-Hl068
On to B3, for which the “relative KD” value with FcgRIIIaV was determined as 1.6; with FcgRIIaR, 0.7; with FcgRIIaH, 0.7; in the assay with FcgRIIb, 0.9; in the assay with FcgRIa it was 0.6; in the assay with FcgRIIIaF, 1.1.

B4: H240-Kn138/H240-Hl068/L73-k0 (antibody, human IgG1, kappa)
heavy 1: B1 heavy 1 with L327W
heavy 2: B1 heavy 2
light: B1 light
notes: Heterodimerized anti-epiregulin IgG1 antibody; L328W in H240-Kn120
Turning to B4, the “relative KD” value in the assay with FcgRIIIaV amounted to 0.8; with FcgRIIaR it was 1.1; in the assay with FcgRIIaH, 1.6; with FcgRIIb, 1.2; with FcgRIa, 1; with FcgRIIIaF, 0.6.

B5: H240-Kn178/H240-Hl068/L73-k0 (antibody, human IgG1, kappa)
heavy 1: B1 heavy 1 with K333Y
heavy 2: B1 heavy 2
light: B1 light
notes: Heterodimerized anti-epiregulin IgG1 antibody; K334Y in H240-Kn120
For the molecule B5, the “relative KD” value with FcgRIIIaV is 1.9; in the assay with FcgRIIaR, 0.8; with FcgRIIaH it was 0.6; with FcgRIIb it was 1.4; with FcgRIa it was 0.7; with FcgRIIIaF, 1.6.

B6: H240-Kn120/H240-Hl182/L73-k0 (antibody, human IgG1, kappa)
heavy 1: B1 heavy 1
heavy 2: B1 heavy 2 with A230H
light: B1 light
notes: Heterodimerized anti-epiregulin IgG1 antibody; A231H in H240-Hl068
As for B6, the “relative KD” value with FcgRIIIaV worked out at 1.2; in the assay with FcgRIIaR, 0.5; in the assay with FcgRIIaH it was 0.5; with FcgRIIb, 0.6; with FcgRIa, 0.9; with FcgRIIIaF it was 0.7.

B7: H240-Kn120/H240-Hl150/L73-k0 (antibody, human IgG1, kappa)
heavy 1: B1 heavy 1
heavy 2: B1 heavy 2 with I331T
light: B1 light
notes: Heterodimerized anti-epiregulin IgG1 antibody; I332T in H240-Hl068
On to B7, for which the “relative KD” value was 0.6 in the assay with FcgRIIIaV; 1 with FcgRIIaR; 1.2 in the assay with FcgRIIaH; 1.5 with FcgRIIb; 0.4 with FcgRIa; 0.7 with FcgRIIIaF.

B8: H240-Kn166/H240-Hl170/L73-k0 (antibody, human IgG1, kappa)
heavy 1: B1 heavy 1 with L327A
heavy 2: B1 heavy 2 with L327A
light: B1 light
notes: Heterodimerized anti-epiregulin IgG1 antibody; L328A in both H chains
Take B8: the “relative KD” value came to 0.4 in the assay with FcgRIIIaV; 0.6 in the assay with FcgRIIaR; 1.9 with FcgRIIaH; 0.8 with FcgRIIb; 2.4 with FcgRIa; 0.5 with FcgRIIIaF.

B9: H240-Kn138/H240-Hl147/L73-k0 (antibody, human IgG1, kappa)
heavy 1: B1 heavy 1 with L327W
heavy 2: B1 heavy 2 with L327W
light: B1 light
notes: Heterodimerized anti-epiregulin IgG1 antibody; L328W in both H chains
As for B9, the “relative KD” value was 0 with FcgRIIIaV; 1.8 with FcgRIIaR; 0.3 with FcgRIIaH; 1.4 with FcgRIIb; 0.5 with FcgRIa; 0.1 in the assay with FcgRIIIaF.

B10: H240-Kn120/H240-Hl170/L73-k0 (antibody, human IgG1, kappa)
heavy 1: B1 heavy 1
heavy 2: B1 heavy 2 with L327A
light: B1 light
notes: Heterodimerized anti-epiregulin IgG1 antibody; L328A in H240-Hl068
B10: the “relative KD” value with FcgRIIIaV was 0.4; with FcgRIIaR, 2.3; with FcgRIIaH it was 2.3; in the assay with FcgRIIb it was 2.2; with FcgRIa, 0.8; with FcgRIIIaF it was 0.6.

B11: H240-Kn173/H240-Hl068/L73-k0 (antibody, human IgG1, kappa)
heavy 1: B1 heavy 1 with I331Q
heavy 2: B1 heavy 2
light: B1 light
notes: Heterodimerized anti-epiregulin IgG1 antibody; I332Q in H240-Kn120
Take B11: the “relative KD” value stood at 0.9 in the assay with FcgRIIIaV; 0.5 in the assay with FcgRIIaR; 0.7 in the assay with FcgRIIaH; 0.5 in the assay with FcgRIIb; 1.3 with FcgRIa; 1.2 in the assay with FcgRIIIaF.

B12: GpH7-A5/GpH7-B3-15-02A/GpL16-k0 (antibody, human IgG1, kappa)
heavy 1: not shown
heavy 2: not shown
light: DIVMTQSPLSLPVTPGEPASISCQASESLVHSNRNTYLHWYLQKPGQSPQLLIYKVSNRFSGVPDRFSGSGSGTDFTLKISRVEAEDVGVYYCSQNTHVPPTFGQGTKVEIERTVAAPSVFIFPPSDEQLKSGTASVVCLLNNFYPREAKVQWKVDNALQSGNSQESVTEQDSKDSTYSLSSTLTLSKADYEKHKVYACEVTHQGLSSPVTKSFNRGEC
notes: H2 S298A
For B12, the “FcγRIIIa BINDING ACTIVITY” value in assay [1] is 163%.
